Biological target: Recombinant human Gal3 (rhGal3) (TrueBinding, #QC200361) (human) (UniProt P17931)
Assay: cell-based or functional assay

% inhibition of CD62L shedding: 21.1%
Substance: MOPC21-hIgG4 (S228P) isotype control (antibody)

— US20250243282A1
